Residue numbers refer to the chain shown, from its start. Values belong to the molecule of their own block, whether it stands above or below them. Non-standard residues stand in square brackets, D forms with d. Residues, ends and D or L forms follow the SMILES beside them. No end group written: not given here. Nle = CCCC[C@H](N)C(=O)O; βAla = NCCC(=O)O
Key:
[1] = biological target: T1, BRS3 (Homo sapiens, UniProt P32247); details: background statement, in words; cited from earlier work
T1 sequence (P32247 1-399): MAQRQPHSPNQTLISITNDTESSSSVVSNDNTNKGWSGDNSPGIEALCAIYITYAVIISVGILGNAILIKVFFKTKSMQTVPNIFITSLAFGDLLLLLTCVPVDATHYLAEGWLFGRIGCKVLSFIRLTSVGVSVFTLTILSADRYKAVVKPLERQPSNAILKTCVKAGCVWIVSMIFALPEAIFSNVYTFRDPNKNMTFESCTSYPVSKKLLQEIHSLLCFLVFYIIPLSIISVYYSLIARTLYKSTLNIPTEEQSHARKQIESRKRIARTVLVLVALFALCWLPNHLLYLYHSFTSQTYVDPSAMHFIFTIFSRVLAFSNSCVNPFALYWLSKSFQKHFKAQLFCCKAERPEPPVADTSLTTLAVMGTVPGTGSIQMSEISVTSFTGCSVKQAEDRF

[2] = biological target: BB1 receptor (Homo sapiens, UniProt P28336); details: from Smart (1998); cited from earlier work
[3] = biological target: BB2 receptor (Homo sapiens, UniProt P30550); details: from Smart (1998); cited from earlier work
[4] = test system: cerebellar granule cells; assay: Glutamate-induced excitotoxicity in cerebellar granule cells; assay type: cell-based
Text: However, in the cerebellar granule cells [D-Phe^6, βAla^11, Phe^13, Nle^14]Bombesin(6-14) had no effect on glutamate-induced excitotoxicity.

[5] = biological target: T2, endogenous human BRS-3 in NCI-N417 cells (Homo sapiens, UniProt P32247); assay: Agonist pharmacology, FLIPR intracellular calcium (Fluo-3AM) in NCI-N417 cells; assay type: cell-based; details: for Efficacy: calcium mobilisation, FLIPR, NCI-N417 cells, efficacy in words
T2 construct: Agonist Pharmacology at the Endogenous Human BRS-3 in NCI-N417 Cells; endogenous in cells; host or cells: NCI-N417 cells
T2 sequence (P32247 1-399): T1 sequence (P32247 1-399)
Experimental: Agonist Pharmacology at the Endogenous Human BRS-3 in NCI-N417 Cells
NCI-N417 cells were seeded into Costar 96 well black walled plates (30,000 cells per well), cultured overnight in RPMI 1640 medium containing 10% foetal calf serum and 1% L-glutamine, and then loaded with the cytoplasmic calcium indicator Fluo-3AM (4 μM) in the presence of 2.5 mM probenecid at 37° C. for 60 min. The cells were then washed 4× with, and finally resuspended in, Tyrode's medium containing 2.5 mM probenecid. Fluorescence was then monitored using a FLIPR (λEX=488 nm, λEM=540 nm) before and after the addition of various ligands (10 pM-10 μM), as described previously (Smart et al (1999). Br. J. Pharmacol. 128:1-4).

[6] = test system: organotypic hippocampal slice cultures; assay: Oxygen/glucose deprivation model in organotypic hippocampal slice cultures; assay type: cell-based
[7] = test system: hippocampal neurones; assay: Neurotoxicity assay (MTT cell survival) in primary hippocampal cell culture; assay type: cell-based, rat; details: sub-maximal neurotoxicity by Mg-free Locke's solution with glycine and histamine, MTT 24 h after insult
Experimental: Hippocampi were isolated from embryonic Sprague Dawley rats (gestational age 17.5 days; Charles River), incubated with 0.08% (w/v) trypsin, and dissociated in Neurobasal medium containing 10% heat-inactivated fetal calf serum (Skaper et al.(1990) Methods in Neurosciences, Vol. 2 (Conn P. M., ed), pp. 17-33 Academic Press, San Diego). Cells were pelleted by centrifugation (200 g, 5 min) and resuspended in Neurobasal medium containing B27 supplements (with antioxidants), 25 μM glutamate, 1 mM sodium pyruvate, 2 mM L-glutamine, 50 U/ml penicillin, and 50 μg/ml streptomycin. The cell suspension was plated onto poly-D-lysine (10 μg/ml) coated 48-well culture plates (Nunc), at a density of 4.5×10^4 cells per cm^2. Cultures were maintained at 37° C. in a humidified atmosphere of 5% CO2-95% air. […]
Cultures were washed once with Locke's solution (pH 7.0-7.4) (Skaper et al. (1990) supra) with or without 1 mM magnesium chloride (MgCl2). […] Cell survival was quantified 24 h after the insult by a colorimetric reaction with 3-(4,5-dimethylthiazol-2-yl)-2,5-diphenyltetrazolium bromide (MTT) (Mosmann (1983) J. Immunol. Methods 65:55-63; Manthorpe et al. (1986) Dev. Brain Res. 25:191-198; Skaper et al., (1990) supra). Absolute MTT values obtained were normalized and expressed as a percentage of sham-treated sister cultures (defined as 100%).

[8] = biological target: T3, human bombesin receptor 3 (BRS3), endogenous in NCI-N417 cells (human) (UniProt P32247); assay: cell-based or functional assay
T3 sequence: T1 sequence (P32247 1-399) with T139A

Chain of BB1 receptor (P28336 whole entry): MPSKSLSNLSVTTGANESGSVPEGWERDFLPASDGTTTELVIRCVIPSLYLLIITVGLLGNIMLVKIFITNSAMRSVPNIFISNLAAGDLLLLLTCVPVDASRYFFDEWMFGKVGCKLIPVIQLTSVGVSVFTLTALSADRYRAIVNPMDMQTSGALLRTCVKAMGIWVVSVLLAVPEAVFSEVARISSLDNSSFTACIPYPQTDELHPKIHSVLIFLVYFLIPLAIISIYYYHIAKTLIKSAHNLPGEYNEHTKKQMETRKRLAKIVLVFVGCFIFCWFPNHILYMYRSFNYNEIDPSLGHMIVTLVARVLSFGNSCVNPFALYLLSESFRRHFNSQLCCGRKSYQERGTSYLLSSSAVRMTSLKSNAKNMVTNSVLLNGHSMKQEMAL
Chain of BB2 receptor (P30550 whole entry): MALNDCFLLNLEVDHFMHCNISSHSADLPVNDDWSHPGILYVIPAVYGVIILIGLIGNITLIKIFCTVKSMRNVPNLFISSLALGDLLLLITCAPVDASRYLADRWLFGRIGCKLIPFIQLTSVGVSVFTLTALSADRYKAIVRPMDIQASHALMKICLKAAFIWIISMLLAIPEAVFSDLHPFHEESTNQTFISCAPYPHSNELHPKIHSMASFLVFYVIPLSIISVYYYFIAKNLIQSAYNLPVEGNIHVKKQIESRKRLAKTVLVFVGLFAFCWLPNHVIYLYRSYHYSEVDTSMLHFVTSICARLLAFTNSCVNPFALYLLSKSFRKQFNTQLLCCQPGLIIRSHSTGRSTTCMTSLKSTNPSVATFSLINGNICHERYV

Efficacy; intracellular calcium (FLIPR) in NCI-N417 cells [8]: 23% | pEG50 [sic, pEC50]; intracellular calcium (Fluo-3AM fluorescence, FLIPR) in NCI-N417 cells [8]: < 5 -log10(M)
Molecule: Bombesin (peptide)

pEG50 [sic, pEC50]; intracellular calcium (Fluo-3AM fluorescence, FLIPR) in NCI-N417 cells [8]: 5.54 -log10(M)
Molecule: PG-L (peptide)

pEG50 [sic, pEC50]; intracellular calcium (Fluo-3AM fluorescence, FLIPR) in NCI-N417 cells [8]: 5.96 -log10(M)
Molecule: [D-Phe^1, Nle^9]litorin (peptide)

pEG50 [sic, pEC50]; intracellular calcium (Fluo-3AM fluorescence, FLIPR) in NCI-N417 cells [8]: 6.83 -log10(M)
Molecule: [D-Phe^6, Phe^13]BN(6-13) propylamide (peptide)

pEG50 [sic, pEC50]; intracellular calcium (Fluo-3AM fluorescence, FLIPR) in NCI-N417 cells [8]: 5.86 -log10(M)
Molecule: [D-Phe^6]BN(6-13) propylamide (peptide)

pEG50 [sic, pEC50]; intracellular calcium (Fluo-3AM fluorescence, FLIPR) in NCI-N417 cells [8]: 8.02 -log10(M)
Molecule: [D-Tyr^6, βAla^11, Phe^13, Nle^14]Bombesin(6-14) (peptide)

Efficacy; intracellular calcium (FLIPR) in NCI-N417 cells [8]: 23% | pEG50 [sic, pEC50]; intracellular calcium (Fluo-3AM fluorescence, FLIPR) in NCI-N417 cells [8]: < 5 -log10(M)
Molecule: VPLPAGGGTVLTKMYPRGNHWAVGHLM (peptide, UniProt P07492 24-50, looked up, species assumed, ends and bridges not checked) [gastrin-releasing peptide (GRP)]

The next lines start with the molecule.

Molecule: CSCC[C@H](NC(=O)[C@H](CC(C)C)NC(=O)[C@H](Cc1c[nH]cn1)NC(=O)CNC(=O)[C@@H](NC(=O)[C@H](C)NC(=O)[C@H](Cc1c[nH]c2ccccc12)NC(=O)[C@H](Cc1c[nH]cn1)NC(=O)[C@H](CC(N)=O)NC(=O)CNC(=O)[C@H](CCCNC(=N)N)NC(=O)[C@@H]1CCCN1C(=O)[C@H](Cc1ccc(O)cc1)NC(=O)[C@H](CCSC)NC(=O)[C@H](CCCCN)NC(=O)[C@@H](NC(=O)[C@H](CC(C)C)NC(=O)[C@@H](NC(=O)[C@@H](NC(=O)CNC(=O)CNC(=O)CNC(=O)[C@H](C)NC(=O)[C@@H]1CCCN1C(=O)[C@H](CC(C)C)NC(=O)[C@@H]1CCCN1C(=O)[C@@H](N)C(C)C)[C@@H](C)O)C(C)C)[C@@H](C)O)C(C)C)C(N)=O [GRP, gastrin-releasing peptide]
affinity at BRS3 [1]: very low (high μM) affinity

Molecule: CC(C)c1cccc(C(C)C)c1NC(=O)N[C@@](C)(Cc1c[nH]c2ccccc12)C(=O)NCC1(c2ccccn2)CCCCC1 [PD 165929]
affinity at the BB1 receptor [2]: 7.6 nM | activity at the BB2 receptor [3]: inactive

Molecule: CCCC[C@H](NC(=O)[C@H](Cc1ccccc1)NC(=O)[C@H](Cc1c[nH]cn1)NC(=O)CCNC(=O)[C@@H](NC(=O)[C@H](C)NC(=O)[C@H](Cc1c[nH]c2ccccc12)NC(=O)[C@H](CCC(N)=O)NC(=O)[C@H](N)Cc1ccccc1)C(C)C)C(N)=O [[D-Phe^6, βAla^11, Phe^13, Nle^14]Bombesin(6-14)] (H-[dF]QWAV[βAla]HF[Nle]-NH2; N-terminus and C-terminus assumed)
affinity at BRS3 [1]: low nM affinity | effect on glutamate-induced excitotoxicity [4]: no effect | EC50 [5]: 13.2 nM | Efficacy [5]: full | neuroprotection [6]: neuroprotective | pEC50 for inhibition of damage [7]: 7.3±0.1

Molecule: Ranantensin (peptide)
pEG50 [sic, pEC50]; intracellular calcium (Fluo-3AM fluorescence, FLIPR) in NCI-N417 cells [8]: 5.59 -log10(M)

Molecule: [D-Phe^6, βAla^11, Phe^13, Nle^14]Bombesin(6-14) (peptide)
pEG50 [sic, pEC50]; intracellular calcium (Fluo-3AM fluorescence, FLIPR) in NCI-N417 cells [8]: 7.88 -log10(M)

Molecule: neuromedin B [NMB]
affinity at BRS3 [1]: very low (high μM) affinity | Efficacy [5]: full

Molecule: neuromedin C (NMC) (peptide)
Efficacy; intracellular calcium (FLIPR) in NCI-N417 cells [8]: 20%

Molecule: GNLWATGHFM (peptide, UniProt P08949 47-56, looked up, species assumed, ends and bridges not checked) [neuromedin B (NMB)]
pEG50 [sic, pEC50]; intracellular calcium (Fluo-3AM fluorescence, FLIPR) in NCI-N417 cells [8]: 5.65 -log10(M)

Molecule: Ac-LWATGHFM (peptide, UniProt P08949 49-56, looked up, species assumed, ends and bridges not checked) [AcNMB(3-10)]
pEG50 [sic, pEC50]; intracellular calcium (Fluo-3AM fluorescence, FLIPR) in NCI-N417 cells [8]: 5.73 -log10(M)

From patent US20040023862A1, “Uses of bombesin receptor 3” (SmithKline Beedham p. l. c., priority 2000, published 2004)
